In the Human Domainome abundance scans (Beltran et al. 2025):
± gives the uncertainty stated by the source.

B1: Formin-binding protein 4, residues 593 to 636; numbered along this chain, Q8N3X1 (parent)
chain: EINATPKGWSCHWDRDHRRYFYVNEQSGESQWEFPDGEEEEEES

Variants of: B1
Assay: abundance fitness (aPCA) (normalised: wild type 0, dead -1); higher = more abundant; growth selection in yeast, the domain comes from the species named
Conditions: Homo sapiens

Which abundance fitness does the source give for EINATPKGWSCHWDRDHRRYFYVNEQSGESQWEFPDGPEEEEES [E38P] here?
The abundance fitness was 0.056 ± 0.07.

With EINATPKGWSCHWDRDHRRYFYVNEQSGESQWEFPDGEDEEEES [E39D] as the variant, how does the abundance fitness read?
The abundance fitness was -0.128 ± 0.14.

Which abundance fitness does the source give for EINATPKGWSCHWDRDHRRYFYVNEQSGESQWEFPDGEKEEEES [E39K] here?
Its abundance fitness is 0.048 ± 0.075.

With EINATPKGWSCHWDRDHRRYFYVNEQSGESQWEFPDGEIEEEES [E39I] as the variant, how does the abundance fitness read?
Its abundance fitness is -0.074 ± 0.2.

For EINATPKGWSCHWDRDHRRYFYVNEQSGESQWEFPDGECEEEES [E39C], which abundance fitness is on record?
The abundance fitness was 0.048 ± 0.1.

With EINATPKGWSCHWDRDHRRYFYVNEQSGESQWEFPDGEGEEEES [E39G] as the variant, how does the abundance fitness read?
The abundance fitness was -0.057 ± 0.063.

Which abundance fitness does the source give for EINATPKGWSCHWDRDHRRYFYVNEQSGESQWEFPDGEFEEEES [E39F] here?
The abundance fitness was -0.155 ± 0.11.

Which abundance fitness does the source give for EINATPKGWSCHWDRDHRRYFYVNEQSGESQWEFPDHEEEEEES [G37H] here?
Its abundance fitness is -0.021 ± 0.12.

Which abundance fitness does the source give for EINATPKGWSCHWDRDHRRYFYVNEQSGESQWEFPDEEEEEEES [G37E] here?
Its abundance fitness is -0.095 ± 0.084.

For EINATPKGWSCHWDRDHRRYFYVNEQSGESQWEFPDSEEEEEES [G37S], which abundance fitness is on record?
Its abundance fitness is -0.112 ± 0.07.

For EINATPKGWSCHWDRDHRRYFYVNEQSGESQWEFPDPEEEEEES [G37P], which abundance fitness is on record?
Its abundance fitness is -0.034 ± 0.097.

For EINATPKGWSCHWDRDHRRYFYVNEQSGESQWEFPDAEEEEEES [G37A], which abundance fitness is on record?
Its abundance fitness is -0.032 ± 0.067.

Which abundance fitness does the source give for EINATPKGWSCHWDRDHRRYFYVNEQSGESQWEFPDMEEEEEES [G37M] here?
Its abundance fitness is -0.216 ± 0.13.

With EINATPKGWSCHWDRDHRRYFYVNEQSGESQWEFPDWEEEEEES [G37W] as the variant, how does the abundance fitness read?
The abundance fitness was -0.154 ± 0.072.

For EINATPKGWSCHWDRDHRRYFYVNEQSGESQWEFPDCEEEEEES [G37C], which abundance fitness is on record?
The abundance fitness was -0.088 ± 0.086.

Which abundance fitness does the source give for EINATPKGWSCHWDRDHRRYFYVNEQSGESQWEFPDTEEEEEES [G37T] here?
The abundance fitness was -0.026 ± 0.081.

With EINATPKGWSCHWDRDHRRYFYVNEQSGESQWEFPDQEEEEEES [G37Q] as the variant, how does the abundance fitness read?
Its abundance fitness is -0.089 ± 0.094.

For EINATPKGWSCHWDRDHRRYFYVNEQSGESQWEFPDREEEEEES [G37R], which abundance fitness is on record?
The abundance fitness was -0.222 ± 0.068.

For EINATPKGWSCHWDRDHRRYFYVNEQSGESQWEFPDIEEEEEES [G37I], which abundance fitness is on record?
Its abundance fitness is -0.232 ± 0.14.

Which abundance fitness does the source give for EINATPKGWSCHWDRDHRRYFYVNEQSGESQWEFPDLEEEEEES [G37L] here?
Its abundance fitness is -0.151 ± 0.071.

Which abundance fitness does the source give for EINATPKGWSCHWDRDHRRYFYVNEQSGESQWEFPDVEEEEEES [G37V] here?
Its abundance fitness is -0.007 ± 0.068.

For EINATPKGWSCHWDRDHRRYFYVNEQSGESQWEFPDDEEEEEES [G37D], which abundance fitness is on record?
The abundance fitness was -0.266 ± 0.18.

For EINATPKGWSCHWDRDHRRYFYVNEQSGESQWEYPDGEEEEEES [F34Y], which abundance fitness is on record?
Its abundance fitness is -0.084 ± 0.12.

For EINATPKGWSCHWDRDHRRYFYVNEQSGESQWEPPDGEEEEEES [F34P], which abundance fitness is on record?
The abundance fitness was 0.071 ± 0.076.

With EINATPKGWSCHWDRDHRRYFYVNEQSGESQWENPDGEEEEEES [F34N] as the variant, how does the abundance fitness read?
Its abundance fitness is -0.635 ± 0.13.

Which abundance fitness does the source give for EINATPKGWSCHWDRDHRRYFYVNEQSGESQWEVPDGEEEEEES [F34V] here?
The abundance fitness was -0.044 ± 0.07.

Which abundance fitness does the source give for EINATPKGWSCHWDRDHRRYFYVNEQSGESQWEEPDGEEEEEES [F34E] here?
The abundance fitness was -0.074 ± 0.088.

For EINATPKGWSCHWDRDHRRYFYVNEQSGESQWEQPDGEEEEEES [F34Q], which abundance fitness is on record?
The abundance fitness was 0.015 ± 0.089.

Which abundance fitness does the source give for EINATPKGWSCHWDRDHRRYFYVNEQSGESQWEMPDGEEEEEES [F34M] here?
Its abundance fitness is -0.07 ± 0.096.

For EINATPKGWSCHWDRDHRRYFYVNEQSGESQWELPDGEEEEEES [F34L], which abundance fitness is on record?
The abundance fitness was 0.015 ± 0.061.

Which abundance fitness does the source give for EINATPKGWSCHWDRDHRRYFYVNEQSGESQWETPDGEEEEEES [F34T] here?
Its abundance fitness is 0.013 ± 0.09.

For EINATPKGWSCHWDRDHRRYFYVNEQSGESQWERPDGEEEEEES [F34R], which abundance fitness is on record?
The abundance fitness was 0.081 ± 0.057.

Which abundance fitness does the source give for EINATPKGWSCHWDRDHRRYFYVNEQSGESQWEAPDGEEEEEES [F34A] here?
The abundance fitness was -0.059 ± 0.072.

With EINATPKGWSCHWDRDHRRYFYVNEQSGESQWESPDGEEEEEES [F34S] as the variant, how does the abundance fitness read?
The abundance fitness was -0.282 ± 0.087.

With EINATPKGWSCHWDRDHRRYFYVNEQSGESQWEHPDGEEEEEES [F34H] as the variant, how does the abundance fitness read?
Its abundance fitness is -0.011 ± 0.11.

Which abundance fitness does the source give for EINATPKGWSCHWDRDHRRYFYVNEQSGESQWEDPDGEEEEEES [F34D] here?
The abundance fitness was -0.222 ± 0.1.

For EINATPKGWSCHWDRDHRRYFYVNEQSGESQWECPDGEEEEEES [F34C], which abundance fitness is on record?
Its abundance fitness is -0.035 ± 0.096.

For EINATPKGWSCHWDRDHRRYFYVNEQSGESQWEWPDGEEEEEES [F34W], which abundance fitness is on record?
The abundance fitness was -0.13 ± 0.07.

For EINATPKGWSCHWDRDHRRYFYVNEQSGESQWEGPDGEEEEEES [F34G], which abundance fitness is on record?
The abundance fitness was -0.392 ± 0.065.

Which abundance fitness does the source give for EINATPKGWSCHWDRDHRRYFYVNEQSGESQWEKPDGEEEEEES [F34K] here?
The abundance fitness was 0.222 ± 0.095.

With EINATPKGWSCHWDRDHRRYFYVNEQSGESQWEFPEGEEEEEES [D36E] as the variant, how does the abundance fitness read?
Its abundance fitness is -0.113 ± 0.085.

For EINATPKGWSCHWDRDHRRYFYVNEQSGESQWEFPHGEEEEEES [D36H], which abundance fitness is on record?
Its abundance fitness is -0.087 ± 0.083.

For EINATPKGWSCHWDRDHRRYFYVNEQSGESQWEFPAGEEEEEES [D36A], which abundance fitness is on record?
The abundance fitness was -0.04 ± 0.067.

For EINATPKGWSCHWDRDHRRYFYVNEQSGESQWEFPKGEEEEEES [D36K], which abundance fitness is on record?
The abundance fitness was -0.076 ± 0.12.

Which abundance fitness does the source give for EINATPKGWSCHWDRDHRRYFYVNEQSGESQWEFPQGEEEEEES [D36Q] here?
Its abundance fitness is -0.063 ± 0.072.

With EINATPKGWSCHWDRDHRRYFYVNEQSGESQWEFPIGEEEEEES [D36I] as the variant, how does the abundance fitness read?
The abundance fitness was -0.07 ± 0.13.

With EINATPKGWSCHWDRDHRRYFYVNEQSGESQWEFPSGEEEEEES [D36S] as the variant, how does the abundance fitness read?
The abundance fitness was 0.003 ± 0.068.

With EINATPKGWSCHWDRDHRRYFYVNEQSGESQWEFPCGEEEEEES [D36C] as the variant, how does the abundance fitness read?
The abundance fitness was -0.097 ± 0.095.

With EINATPKGWSCHWDRDHRRYFYVNEQSGESQWEFPTGEEEEEES [D36T] as the variant, how does the abundance fitness read?
Its abundance fitness is -0.137 ± 0.081.

For EINATPKGWSCHWDRDHRRYFYVNEQSGESQWEFPNGEEEEEES [D36N], which abundance fitness is on record?
The abundance fitness was -0.273 ± 0.16.

Which abundance fitness does the source give for EINATPKGWSCHWDRDHRRYFYVNEQSGESQWEFPYGEEEEEES [D36Y] here?
The abundance fitness was -0.494 ± 0.13.

For EINATPKGWSCHWDRDHRRYFYVNEQSGESQWEFPRGEEEEEES [D36R], which abundance fitness is on record?
Its abundance fitness is -0.012 ± 0.062.

With EINATPKGWSCHWDRDHRRYFYVNEQSGESQWEFPMGEEEEEES [D36M] as the variant, how does the abundance fitness read?
The abundance fitness was -0.09 ± 0.079.

Which abundance fitness does the source give for EINATPKGWSCHWDRDHRRYFYVNEQSGESQWEFPLGEEEEEES [D36L] here?
Its abundance fitness is -0.176 ± 0.065.

With EINATPKGWSCHWDRDHRRYFYVNEQSGESQWEFPPGEEEEEES [D36P] as the variant, how does the abundance fitness read?
The abundance fitness was -0.025 ± 0.071.

With EINATPKGWSCHWDRDHRRYFYVNEQSGESQWEFPFGEEEEEES [D36F] as the variant, how does the abundance fitness read?
The abundance fitness was -0.232 ± 0.11.

For EINATPKGWSCHWDRDHRRYFYVNEQSGESQWEFPWGEEEEEES [D36W], which abundance fitness is on record?
Its abundance fitness is -0.262 ± 0.073.

Which abundance fitness does the source give for EINATPKGWSCHWDRDHRRYFYVNEQSGESQWEFPVGEEEEEES [D36V] here?
Its abundance fitness is -0.044 ± 0.064.
